One block for each molecule: values may come before it.
What was measured:
[1] = biological target: human platelet CD36 (human) (UniProt P16671); experiment: cell-based or functional assay
[2] = biological target: T1, BSA (bovine, UniProt P02769 25-607); experiment: plate binding assay, wells coated with BSA (10 µg/mL), detection with anti-human MRP-14 antibody and HRP-conjugated secondary antibody at 450 nm
T1 construct: also called bovine serum albumin
Method: High-protein binding plate (Nunc, Thermo Scientific) was coated with purified CD36 (Abcam) or BSA (10 μg/mL) overnight at 4° C. After blocking with 10% BSA at RT for 2 hours, purified human MRP-14 protein (0-2.5 μg/ml) was added and incubated for 2 hours at RT. After washing, plate was incubated with anti-human MRP-14 antibody for one hour followed by washing and incubation with HRP-conjugated secondary antibody that was detected with TMB substrate (Thermo Scientific) at 450 nm.

Sequence of human platelet CD36 (human) (P16671 2-472 limits assumed): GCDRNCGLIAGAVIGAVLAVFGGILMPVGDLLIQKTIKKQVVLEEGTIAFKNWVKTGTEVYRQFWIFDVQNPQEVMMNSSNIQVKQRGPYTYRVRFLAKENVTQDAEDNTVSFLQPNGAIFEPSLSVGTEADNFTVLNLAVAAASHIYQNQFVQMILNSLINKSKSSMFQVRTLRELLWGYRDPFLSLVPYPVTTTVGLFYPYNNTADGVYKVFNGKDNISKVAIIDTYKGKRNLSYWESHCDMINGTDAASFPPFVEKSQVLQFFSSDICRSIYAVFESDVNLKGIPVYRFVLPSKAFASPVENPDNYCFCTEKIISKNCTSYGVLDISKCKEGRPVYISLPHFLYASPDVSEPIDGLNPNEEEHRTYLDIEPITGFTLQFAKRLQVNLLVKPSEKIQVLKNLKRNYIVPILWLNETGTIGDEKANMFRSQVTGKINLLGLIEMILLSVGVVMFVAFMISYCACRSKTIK
T1 sequence (P02769 25-607 limits assumed): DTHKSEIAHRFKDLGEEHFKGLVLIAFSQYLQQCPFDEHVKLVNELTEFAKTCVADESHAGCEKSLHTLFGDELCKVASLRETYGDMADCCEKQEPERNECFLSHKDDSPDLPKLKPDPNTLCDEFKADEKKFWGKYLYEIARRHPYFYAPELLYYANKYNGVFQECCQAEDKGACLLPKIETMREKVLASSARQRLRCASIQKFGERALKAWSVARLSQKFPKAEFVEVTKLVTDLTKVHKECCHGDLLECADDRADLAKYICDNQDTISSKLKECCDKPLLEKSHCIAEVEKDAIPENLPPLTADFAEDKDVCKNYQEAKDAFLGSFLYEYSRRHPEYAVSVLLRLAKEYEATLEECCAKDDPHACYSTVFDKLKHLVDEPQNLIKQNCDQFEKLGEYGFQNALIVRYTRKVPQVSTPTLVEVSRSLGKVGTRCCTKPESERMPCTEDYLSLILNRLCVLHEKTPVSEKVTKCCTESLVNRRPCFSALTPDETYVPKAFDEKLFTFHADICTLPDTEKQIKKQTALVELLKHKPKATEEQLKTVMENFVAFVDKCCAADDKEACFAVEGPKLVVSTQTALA

percentage of inhibition of shear-induced thrombus formation in anticoagulated human whole blood (antibody 10 µg/ml) [1]: 53.8%
Molecule: anti-human CD36 monoclonal antibody (clone FA6-152)

binding result [2]: no binding (tested: 0-2.5 µg/ml MRP-14)
B1: purified, recombinant human MRP-14 (ligand, UniProt P06702 1-114, looked up)
chain: MTCKMSQLERNIETIINTFHQYSVKLGHPDTLNQGEFKELVRKDLQNFLKKENKNEKVIEHIMEDLDTNADKQLSFEEFIMLMARLTWASHEKMHEGDEGPGHHHKPGLGEGTP
notes: Bought protein; also called purified MRP-14; purified human MRP-14 protein

Reference: US20160297875A1 (CASE WESTERN RESERVE UNIVERSITY, published 2016)
